The supplement of paper PMC9170038

Test system: MS2 coat protein
Test: apparent KD of MS2 coat protein; designed switch direction (-1 OFF switch, 1 ON switch): 1; higher = weaker reporter binding
Procedure, shortened: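 Designed RNA switches sharing common flanks were transcribed on Illumina chips by stalled E. coli RNA polymerase. They were titrated with SNAP-549-labelled MS2 coat protein, from 0.7 or 1.5 nM doubling to 3 µM, in Tris-HCl pH 7.5 buffer with KCl, MgCl2, BSA, DTT, tRNA and Tween-20. Titrations ran without input, with 200 uM small-molecule ligand, or with an oligonucleotide input. The apparent KD of each design is the median over its clusters, after curve-fitting of normalised cluster fluorescence.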

[1] = Eterna round: R95, input ligand: FMN 200 uM
[2] = Eterna round: R95, input ligand: microRNA oligo, concentration not stated
[3] = Eterna round: R95, input ligand: none
[4] = input ligand: microRNA oligo, concentration not stated

Sequence | apparent KD of MS2 coat protein [1] | apparent KD of MS2 coat protein [2] | apparent KD of MS2 coat protein [3] | apparent KD of MS2 coat protein (input ligand: FMN 200 uM) | apparent KD of MS2 coat protein [4] | apparent KD of MS2 coat protein (input ligand: none)
ACAAGCUUUUCUGUAUUGAAAGGUGGGAUACAUGAGGAUCACCCAUGUUUUUUUGUUUAUAUUUGUCCUCGUCUUAU [JR_SHM208A_Sub087] (puzzle: Sensor for hsa-mir-208a) | 52.7 nM | 33.2 nM | 46.7 nM |  |  | 
AGGGAGGAUGCAGGAUAUAUAAGACAUGAGGAUCACCCAUGUACCUCGUGGAGAAGAAAGGAGAGAUAGAAGGGUAGUGAGGAA [Default title] (Eterna round: R96, puzzle: Same State NG 2) |  |  |  | 285 nM | 200 nM | 258 nM
AACCCAUCGGGAGGAUAUGGCACCUUAUUGGUGCCAGAAGGUCCAACAUGAGGAUCACCCAUGUGGGAGCCGUCGAAAGACGGC [Fiskers NG1ss - 7] (Eterna round: R96, puzzle: Same State NG 1) |  |  |  | 270 nM | 66.5 nM | 293 nM
AGUUGUGGGAAACUAUAGCAGACGCUCGUACAUGAGGAUCACCCAUGUCUUGUAGGAGCUGUUUGCUCGUUUUAUGG [ak 1 mod of one Eli's designs.] (puzzle: Sensor for hsa-mir-208a) | 62.8 nM | 50.1 nM |  |  |  | 
AUUAUUAAUGCAGGAUAUGAUUAACAUGAGGAUCACCCAUGUGGUGUUGUGAGUAAGGAGAGUGAUCAGAAGGGCAUUUCUUUU [JMF's solution 11] (Eterna round: R96, puzzle: Same State NG 2) |  |  |  | 468 nM | 241 nM | 373 nM
UACAAUCUAUCUGAGGAUAUCAUGAAAAAAACAUGAGGAUCACCCAUGUGCAGGAAAACUGCAUAUGAGAAGGCAGAUAGAUUGG [salish99_SS2_r3_007] (puzzle: Same State 2) | 14.3 nM | 3390 nM | 11700 nM |  |  | 
GUGGUGUAGAUACAGGAUAUGUUGCUCGUAACAUGAGGAUCACCCAUGUAUCUAUGAGAUAAAAUGCAGAAGGGUGCACACCACU [Mat - Same State 2 - Mod of UCT - D75] (puzzle: Same State 2) |  | 245 nM |  |  |  | 
GGAGCCGGCACCGAGGAUAUUCAUAUUAAAACAUGAGGAUCACCCAUGUAGAGGAGAACCUCUUGGGAGAAGGCGGAUCGGCUCG [Xeonanis - 26] (puzzle: Same State 2) | 289 nM | 723 nM | 1090 nM |  |  | 
UUGCAGUCAGGUGAGGAUAUCAUGAAUUAAACAUGAGGAUCACCCAUGUGCUGCCUUGCAGCAUAUGAGAAGGCACCUGGCUGCU [JL-ss2-3.01 Brourd Mod] (puzzle: Same State 2) | 65.2 nM | 185 nM | 640 nM |  |  | 
AAAAUUGAAUUACAUCUGCUCGUCAUACAACAUGAGGAUCACCCAUGUAACAUCAAACAACCAACCAAACACAAAUC [Ceeslage] (Eterna round: R96, puzzle: Sensor for hsa-mir-208a) |  |  |  | 20.1 nM | 17.5 nM | 22.3 nM
UGGAUCUAGGCUUGCCUGGGUCCAUGCUGACAUGAGGAUCACCCAUGUGCAUCCUACAAGCUUUUUGCUUGUCAGUU (Eterna round: R96, puzzle: Sensor for hsa-mir-208a) |  |  |  | 575 nM | 330 nM | 289 nM
GGUCCAGCCUGAGCUGGACAAAAGCAUGUACAUGAGGAUCACCCAUGUCAUGUACAAGCUUUUUGCUCGUCUAAAAU [Mat - hsa-mir-208a - 101] (puzzle: Sensor for hsa-mir-208a) | 508 nM | 15.8 nM | 629 nM |  |  | 
UUGAUGAACUGAGGAUAUCGAGUCGUCUGUUUUUACAUGAGGAUCACCCAUGUGGGUUGUGGUAUCGAGAAGGCAGAUUACUUA [JR_SSNG2_Sub031] (Eterna round: R96, puzzle: Same State NG 2) |  |  |  | 1670 nM | 974 nM | 2150 nM
UUAAGCAACGGGCAGGAUAUGUAUUAAUAUACAUGAGGAUCACCCAUGUGCAGGUGUAACACCUGACAGAAGGGCCAAUCGCUGC [Soteed - 10] (puzzle: Same State 2) | 82.1 nM | 509 nM | 515 nM |  |  | 
AGUCCAGCAAGAGCUGGACAAAAGCAUGUACAUGAGGAUCACCCAUGUCAUGUACAAGCUUUUUGCUCGUCUUAAAA [Mat - hsa-mir-208a - Mod of JL - D3] (puzzle: Sensor for hsa-mir-208a) | 456 nM | 16 nM | 729 nM |  |  | 
CGUCCAGCCUGAGCUGGACAAAAGCAUGUACAUGAGGAUCACCCAUGUUCAUGUACAAGCUUUUUGCUCGUCUUAAC [salish99_208a_r3_039] (puzzle: Sensor for hsa-mir-208a) | 660 nM | 18.2 nM | 616 nM |  |  | 
ACUCUACAUGAGGAUCACCCAUGUUGAGCCCAUCAAGGAUAUGGGUCUUAAUCGCGGGUGCCAGAAGGUGAUGGUU [Xesove] (Eterna round: R96, puzzle: Same State 1) |  |  |  | 313 nM | 46.8 nM | 94.3 nM
ACAUGAGACUUAGGAUAUCUUGUACCUACAUGUGACAUGAGGAUCACCCAUGUGGUAAGUAUGACAGAGAAGGAAGAGAUAUGU [Equivalance 68 - Jieux - Same State NG 2] (Eterna round: R96, puzzle: Same State NG 2) |  |  |  | 40.4 nM | 49.9 nM | 79.7 nM
GCUAGAAUCAAAGCCAACAUGAGGAUCACCCAUGUAUGUUGGUAGGAUAUCGUUUGCUUUGCAAACGAGAAGGACCAAACUAGC [SameState NG3 #1] (Eterna round: R96, puzzle: Same State NG 3) |  |  |  | 30.2 nM | 75.3 nM | 87.1 nM
GUGGUGGGUUGAGGAUAUUGGUUGUUGUUGUUUUACAUGAGGAUCACCCAUGUGGGUUGUGGUUUUGAGAAGGUUGGUUGCUGG [salish99_SSNG2_r04_048] (Eterna round: R96, puzzle: Same State NG 2) |  |  |  | 262 nM | 194 nM | 185 nM
GUAGCAUACCGAGGAUAUUCAUAUAAUACAUGAGGAUCACCCAUGUUAAAUAGGCGAAAGCCUUGGGAGAAGGCGGAAUGCUAC [Xeonanis - 20 Mod66] (Eterna round: R96, puzzle: Same State NG 2) |  |  |  | 10.5 nM | 13 nM | 17.1 nM
GUGGUCAGACAUGAGGAUCACCCAUGUGGAAUAAAUAAGGAAAAGGAUAUCGAAUAUAGGAUAUACGAGAAGGUUUGGUUGGUG (Eterna round: R96, puzzle: Same State NG 3) |  |  |  |  | 73.6 nM | 
GUCGGCCUGUCGUGCUGAGGUGAUAGUUAACAUGAGGAUCACCCAUGUUGCUGUCGGGUCGUUGGGAGUUUUCUUCG [Modxample 117 - Jieux - Sensor for bsa-mir-208a] (Eterna round: R96, puzzle: Sensor for hsa-mir-208a) |  |  |  | 71.2 nM | 50.8 nM | 62.4 nM
UUGCUCGUGUGAGGAUAUGCAGCCGUUUCGGCUGCAGAAGGUACUAUAAUACAUGAGGAUCACCCAUGUCUCUAUUGUUUAGUG [salish99_SSNG1_r04_927] (Eterna round: R96, puzzle: Same State NG 1) |  |  |  | 25.7 nM | 19.6 nM | 26.7 nM
GUAGCAUACCGAGGAUAUUCAUAAAAUAAAUAAACAUGAGGAUCACCCAUGUGGCGAAAGCCUUGGGAGAAGGCGGAAUGCUAC [Xeonanis - 20 Mod73] (Eterna round: R96, puzzle: Same State NG 2) |  |  |  | 20 nM | 370 nM | 359 nM
ACAUGAGACUUAGGAUAUCUUGUACCUACAUGUGACAUGAGGAUCACCCAUGUGGUAAGUAUGAGGGAGAAGGAAGAGAUAUGU [Equivalence 38 - Jieux - Same State NG 2] (Eterna round: R96, puzzle: Same State NG 2) |  |  |  | 30.8 nM | 21 nM | 33.9 nM
AUUUUUCAUGCAGGAUAUGAUUAACAUGAGGAUCACCCAUGUGGUGUUGUGAGUAAGGAGAGUGAUCAGAAGGGCAUUUUUUUU [JMF's solution 94] (Eterna round: R96, puzzle: Same State NG 2) |  |  |  | 837 nM | 342 nM | 503 nM
